Like-named read-outs stand apart in the source and are kept apart here. Where no end group is shown, it is not given here.

The target of experiment [1] is T1, human Neuropeptide Y receptor type 2 (human, UniProt P49146 1-381).
T1 sequence (looked up): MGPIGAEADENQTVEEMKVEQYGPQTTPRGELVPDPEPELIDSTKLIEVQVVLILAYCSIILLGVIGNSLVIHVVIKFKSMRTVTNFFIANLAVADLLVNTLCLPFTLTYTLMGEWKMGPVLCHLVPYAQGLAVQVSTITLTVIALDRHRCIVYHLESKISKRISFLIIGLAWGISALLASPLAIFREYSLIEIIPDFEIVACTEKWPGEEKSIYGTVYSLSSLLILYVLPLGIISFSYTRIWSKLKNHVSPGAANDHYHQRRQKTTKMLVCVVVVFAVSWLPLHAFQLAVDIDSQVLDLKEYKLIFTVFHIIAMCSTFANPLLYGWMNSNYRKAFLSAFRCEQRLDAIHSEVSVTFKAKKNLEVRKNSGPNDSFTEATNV
Briefly: cell-based or functional assay.

The target in experiment [2] is T1, human Neuropeptide Y receptor type 2. Briefly: cell-based or functional assay. The source holds these as a separate data set.

Turning to PKPEHPGKDASPEEWNRYYASLRKYLNWVTRQRY-NH2 [Example 25], the “hNPY Y2 pEC50” value in experiment [1] came to 9.6 pEC50.
With PKPEAPGCDASPEEWNRYYASLRKYLNWVTRQNY-NH2 [Peptide 1], the “hNPY Y2 pEC50” value in experiment [2] is 7.9 pEC50.
The same measure, in the same setting: then IKPEAPLSKQLEEEAVRYYASLRHYLNLVTRQRY-NH2 [Peptide 2], with 8.6 pEC50.
Same read-out and setting: then PKPEAPLSKQLEEEAVRYYASLRHYLNLVTRQRY-NH2 [Peptide 21], with 8.7 pEC50.
Consider PKPEAPGKDASPEELNRYYASLRKYLNWVTRQRY-NH2 [Example 31], for which the “hNPY Y2 pEC50” value in experiment [1] was determined as 9.8 pEC50.
The same measure, in the same setting: then PKPEAPGKDASPEELNRYYASLRKYLNWLTRQRY-NH2 [Example 2], with 9.8 pEC50.
PKPVAPGCDASPAELNRQYSDLRNYWNLVTRQRY-NH2 [Peptide 15]: the “hNPY Y2 pEC50” value in experiment [2] came to 8.9 pEC50.
Still for that read-out and setting: for PKPEAPGCDASPEEWNRYYASLRKYLNWVTRQHY-NH2 [Peptide 14] the value was 8.2 pEC50.
The same measure, in the same setting: for IKPPYPGCDASPEEQNKYYASLRAYWNLVTRQRY-NH2 [Peptide 8] the value was 9.3 pEC50; for PKPEAPGEDASPKEWNRYYASLRKYLNWVTRQRY-NH2 [Peptide 3], 9.2 pEC50.
